Here are results for ten molecules from US20210130452A1 (Merck KGaA, published 2021).

Positions count from the first letter of the chain named.

Sequences and labels used below:
B1: 02A10 (VHH)
VHH: EVQLVESGGGLVQPGGSLRLSCAASGFALGYYAIGWFRQAPGKEREGVSCDSSSDGRTYYGDSVKGRFTISTDSAKNTVYLQMNSLKPEDTAVYYCATCTDFEYDYWGQGTQVTVSS
notes: Class 2 Nanobody (anti-IL-17A and IL-17A/F); not shown: c-myc, His6 tag
B2: 04F09 (VHH)
VHH: EVQLVESGGGLVQPGGSLRLSCAASGRTFSTHAMGWFRQAPGKERDFVAAIRWSDGSSFYADSVKGRFTISRDNAKNAVYLQSNSLKSEDTAVYVCYADVEGPTALHKYWGRGTQVTVSS
notes: as for B1
B3: 04B10 (VHH)
VHH: EVQLVESGGGLVQAGGSQSLSCVASGTIVNINVMGWYRQAPGKQRELVALITSGGGTTYGDSVKGRFTISIDNAKNTVILQMNSLEAEDTAVYYCAAEIGYYSGGTYFSSEAHWGQGTQVTVSS
notes: as for B1
B4: 09G10 (VHH)
VHH: EVQLVESGGGLVQAGGSLRLSCAASDSVFTAKAVGWYRQPPGLQREWVAIITSGGKTNYADSSVKGRFTVSVDKVKNTVTLQMNSLKPEDTAVYYCYAQWMGRDYWGQGTQVTVSS
notes: as for B1
B5: 04G01 (VHH)
VHH: EVQLVESGGGLVQAGGSQRLSCTASGTIVNIHVMGWYRQAPGKQRELVALIFSGGSADYADSVKGRFTISRDNAKNTVYLEMNSLKAEDTAVYYCAAEIGYYSGGTYYSSEAHWGQGTQVTVSS
notes: Class 2 Nanobody (anti-IL-17A and IL-17A/F); also called IL17MS04G01; not shown: c-myc, His6 tag
B6: 07B11 (VHH)
VHH: EVQLVESGGGLVQAGGSLRLSCVASGRAFSSYVMGWFRQAPGMEREFVALIRWSDGITGYVDSVKGRFTISRDNAKNTVYLQMNSLKPEDTAVYYCAAAVRPGDYDYWGQGTQVTVSS
notes: Class 3
B7: 07B09 (VHH)
VHH: EVQLVESGGGLVQAGGSLRLSCGASGGTFSSYATGWFRQAPGKEREFVAVLRWSDGHTAYADSVKGRFTISRDGAKNTMYLQMSSLKPEDTAIYYCTTATRPGEWDYWGQGTQVTVSS
notes: Class 3
B8: 24G10 (VHH)
VHH: B7 VHH with S25A, L51F, G56S, M79L
notes: Class 3
B9: 08H01 (VHH)
VHH: B7 VHH with G56S, K65E, M79V, A99G, D106H
notes: Class 3
B10: 24B08 (VHH)
VHH: EVQLVESGGGLVQAGGSLRLSCAVSGGTFSTYKMGWFRQAPGKEREIVARISTNGPTAYAEFVKGRFTVSRENTKNTVYLQMNSLNIEDTAVYYCAAGYDSLFAGYDYWGQGTQVTVSS
notes: Class 3

For the first assay, the target named is T1, human IL-17A/F heterodimer (human, UniProt Q16552 24-155; Q96PD4 31-163, limits assumed, biotinylated with Sulfo-NHS-LC-Biotin in the AlphaScreen assays only).
T1 construct: also called hIL-17A/F
T1 sequence (Q16552 24-155 limits assumed, chain 1 of 2, one chain of several): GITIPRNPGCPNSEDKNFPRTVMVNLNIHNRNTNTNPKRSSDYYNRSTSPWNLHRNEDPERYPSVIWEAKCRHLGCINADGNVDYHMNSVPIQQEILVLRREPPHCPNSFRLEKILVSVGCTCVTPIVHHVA
The experiment in a line: SPR Biacore, hIL-17A/F on chip; purified protein. Background: SPR reads the build-up and loss of mass on a sensor chip optically.
In turn, B1 came in with a koff of 0.00028 s⁻¹.
On the same count and under the same terms, with B2 the figure was 0.0081 s⁻¹; with B3, 0.0005 s⁻¹.
On the same count and under the same terms, then B4, with 0.00013 s⁻¹; and B5, with 0.00023 s⁻¹.

The next assay addresses T1, human IL-17A/F heterodimer. The experiment in a line: cell-based or functional assay.
Regarding B1, the “IL-17A/F-induced IL-6 production in HT-1080 cells, Emax” value is 98.5% and the “IL-17A/F-induced IL-6 production in HT-1080 cells, IC50” value was 29.2 nM.
The like results for B2 were, in that order, 68.5% and 45.9 nM.
The like results for B3 were, in that order, 97% and 59.2 nM.
As to B4, the “IL-17A/F-induced IL-6 production in HT-1080 cells, Emax” value was 108% and the “IL-17A/F-induced IL-6 production in HT-1080 cells, IC50” value was 22.2 nM.
The like results for B5 were, in that order, 104% and 34.7 nM.

Another assay addresses T2, human IL-17B (human, UniProt Q9UHF5 21-180).
T2 construct: expressed in E. coli; also called hIL-17B
T2 sequence (looked up): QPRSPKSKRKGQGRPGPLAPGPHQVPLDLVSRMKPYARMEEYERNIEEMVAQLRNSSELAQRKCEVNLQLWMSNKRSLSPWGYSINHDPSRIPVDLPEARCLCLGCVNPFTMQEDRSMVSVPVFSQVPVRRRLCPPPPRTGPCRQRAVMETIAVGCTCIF
The experiment in a line: SPR, cytokine on chip.
Description: (§1) Human IL-17B, IL-17C, IL-17D or IL-17E were all expressed in E. coli, and covalently bound to a CM sensor chip surface via amine coupling using EDC/NHS for activation and HCl for deactivation.
(§2) Next, binding buffer was sent over the chip at the same flow rate to allow spontaneous dissociation of bound Nanobody or antibody.
For the molecule B6, the binding result is given as “no binding”.
As for B7, the binding result is listed as “no binding”.
The same measure, in the same setting: with B8 the entry was “no binding”; with B9, “no binding”.

For a further assay, the target named is T3, human IL-17D (human, UniProt Q8TAD2 18-202, limits assumed).
T3 construct: expressed in E. coli; also called hIL-17D
T3 sequence (looked up): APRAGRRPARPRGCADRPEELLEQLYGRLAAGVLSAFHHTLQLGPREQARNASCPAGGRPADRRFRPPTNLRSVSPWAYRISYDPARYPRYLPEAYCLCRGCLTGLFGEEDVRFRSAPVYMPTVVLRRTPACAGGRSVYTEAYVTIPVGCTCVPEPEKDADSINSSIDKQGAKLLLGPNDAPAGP
Description: SPR, cytokine on chip.
Description: as §1, §2
On to B6, for which the binding result is “no binding”.
B7: the binding result is “no binding”.
Turning to B8, the binding result was “no binding”.
As for B9, the binding result is “no binding”.

The target of the next assay is T4, human IL-17C (human, UniProt Q9P0M4 19-197).
T4 construct: expressed in E. coli; also called hIL-17C
T4 sequence (looked up): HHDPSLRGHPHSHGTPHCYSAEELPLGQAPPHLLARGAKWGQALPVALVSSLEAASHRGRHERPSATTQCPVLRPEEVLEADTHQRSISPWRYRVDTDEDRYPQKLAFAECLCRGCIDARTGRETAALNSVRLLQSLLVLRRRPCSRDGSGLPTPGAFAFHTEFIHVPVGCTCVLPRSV
The experiment in a line: SPR, cytokine on chip.
Description: as §1, §2
In the case of B6, the binding result was “no binding”.
The same measure, in the same setting: with B7 the entry was “no binding”; with B8, “no binding”; with B9, “no binding”.

For a further assay, the target named is T5, human IL-17E (human, UniProt Q9H293 33-177).
T5 construct: expressed in E. coli; also called hIL-17E
T5 sequence (looked up): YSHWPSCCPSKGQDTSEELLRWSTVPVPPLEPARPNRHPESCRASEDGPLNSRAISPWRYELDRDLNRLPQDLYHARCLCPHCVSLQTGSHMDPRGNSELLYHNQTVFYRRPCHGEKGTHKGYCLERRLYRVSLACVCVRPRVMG
The experiment in a line: SPR, cytokine on chip.
Description: as §1, §2
As to B6, the binding result is “no binding”.
As to B7, the binding result was “no binding”.
As to B8, the binding result is “no binding”.
B9: the binding result is given as “no binding”.

In the next assay the target is T6, mouse IL-17F (mouse, UniProt Q7TNI7 29-161).
T6 sequence (looked up): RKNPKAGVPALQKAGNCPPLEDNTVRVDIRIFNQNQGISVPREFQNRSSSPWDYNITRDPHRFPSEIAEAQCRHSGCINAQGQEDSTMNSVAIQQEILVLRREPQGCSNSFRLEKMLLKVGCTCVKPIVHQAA
Description: binding ELISA. For orientation: An ELISA detects its analyte on a solid surface through an enzyme-linked reagent.
Description: (§3) Binding of a selected panel of anti-IL-17 Nanobodies to IL-17 of other species was assessed using a binding ELISA. […] HRP (horseradish peroxidase) conjugated anti-myc (Serotec, MCA 2200P) was used for detection using esTMB as substrate.
In the case of B10, the binding result is given as “no binding (tested: 250 nM)”.
Same read-out and setting: then B6, with “no binding (tested: 250 nM)”.
In the case of B7, the binding result was “no binding (tested: 250 nM)”.
Same read-out and setting: with B8 the entry was “no binding (tested: 250 nM)”.
The same measure, in the same setting: then B9, with “no binding (tested: 250 nM)”.

A further assay addresses T7, rat IL-17F (rat, UniProt Q5BJ95 29-161).
T7 sequence (looked up): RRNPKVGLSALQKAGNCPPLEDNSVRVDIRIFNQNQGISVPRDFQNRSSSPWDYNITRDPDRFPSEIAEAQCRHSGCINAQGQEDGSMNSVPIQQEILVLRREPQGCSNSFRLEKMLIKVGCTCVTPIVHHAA
Description: binding ELISA.
Description: as §3
As to B10, the binding result was “no binding (tested: 250 nM)”.
Same read-out and setting: with B6 the entry was “no binding (tested: 250 nM)”; with B7, “no binding (tested: 250 nM)”.
On the same count and under the same terms, with B8 the entry was “no binding (tested: 250 nM)”; with B9, “no binding (tested: 250 nM)”.

For a further assay, the target named is T1, human IL-17A/F heterodimer. The experiment in a line: AlphaScreen competition, hIL-17A/F - IL-17RC-Fc. (In Alpha technology, singlet oxygen from a donor bead excites a nearby acceptor bead.)
Description: (§4) To this mixture, the IL-17RA or IL-17RC Fc-fusions, Acceptor beads and the streptavidin Donor beads were added and further incubated for 1 hour at RT.
On to B1, for which the IC50 amounted to 0.248 nM.
The same measure, in the same setting: then B2, with 3.15 nM.
Still for that read-out and setting: with B3 the figure was 0.052 nM; with B4, 0.12 nM; with B5, 0.039 nM.

The target in another assay is T8, human IL-17A (human, UniProt Q16552 24-155, biotinylated with Sulfo-NHS-LC-Biotin in the AlphaScreen assays only).
T8 construct: also called hIL-17A; recombinant human IL-17A
T8 sequence (Q16552 other isoform, or with tags, fused parts or gaps): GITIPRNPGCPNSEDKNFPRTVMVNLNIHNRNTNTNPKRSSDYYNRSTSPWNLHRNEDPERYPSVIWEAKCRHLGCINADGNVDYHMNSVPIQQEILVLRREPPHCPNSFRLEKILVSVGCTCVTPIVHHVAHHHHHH
Description: AlphaScreen competition, hIL-17A - IL-17RA-Fc.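 Note: receptor Fc-fusion plus Acceptor and streptavidin Donor beads incubated with the mixture for 1 h at room temperature before reading.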
Description: as §4
B1 registered an IC50 of 0.115 nM.
Molecule B2 gave a half-maximal inhibitory concentration (IC50) of 0.099 nM.
In the case of B3, the IC50 stood at 0.068 nM.
On to B4, for which the IC50 was determined as 0.046 nM.
The same measure, in the same setting: with B5 the figure was 0.014 nM.

The next assay deals with T1, human IL-17A/F heterodimer. Description: AlphaScreen competition, hIL-17A/F - IL-17RA-Fc.
Description: as §4
On to B1, for which the IC50 was 0.199 nM.
B2 gave an IC50 of 3.98 nM.
Same read-out and setting: with B3 the figure was 0.095 nM.
Still for that read-out and setting: with B4 the figure was 0.101 nM.
The same measure, in the same setting: with B5 the figure was 0.067 nM.

The target in another assay is T9, human IL-17F (human, UniProt Q96PD4 31-163, biotinylated with Sulfo-NHS-LC-Biotin in the AlphaScreen assays only).
T9 construct: also called hIL-17F; recombinant human IL-17F
T9 sequence: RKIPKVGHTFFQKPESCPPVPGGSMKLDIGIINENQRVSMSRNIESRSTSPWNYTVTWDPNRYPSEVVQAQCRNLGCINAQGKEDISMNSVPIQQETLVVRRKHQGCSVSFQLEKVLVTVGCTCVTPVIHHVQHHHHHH
The experiment in a line: SPR Biacore, hIL-17F on chip; periplasmic extract (*); NB = no binding.
Description: Off-rates of the periplasmic extracts containing anti-IL-17 Nanobodies were measured by Surface Plasmon Resonance (SPR) using a Biacore T100 instrument. […] Periplasmic extracts containing IL-17 neutralizing Nanobodies were injected for 2 minutes at a flow rate of 45 μl/min to allow binding to chip-bound antigen. Next, binding buffer without periplasmic extracts was sent over the chip at the same flow rate to allow spontaneous dissociation of bound Nanobody. From the sensorgrams obtained for the different periplasmic extracts koff-values (k₄) were calculated.
Turning to B1, the binding result is given as “no binding”.
On the same count and under the same terms, then B2, with “no binding”; and B3, with “no binding”; and B4, with “no binding”.
Same read-out and setting: then B5, with “no binding”.

For another assay, the target named is T8, human IL-17A. The experiment in a line: AlphaScreen competition, hIL-17A - IL-17RC-Fc.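 Note: Read-out after 1 h at room temperature with the receptor Fc-fusion, Acceptor beads and streptavidin-coated Donor beads present.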
Description: as §4
Molecule B1 displayed an IC50 of 0.381 nM.
On to B2, for which the IC50 is 0.468 nM.
The same measure, in the same setting: with B3 the figure was 0.366 nM; with B4, 0.323 nM.
Still for that read-out and setting: then B5, with 0.217 nM.

A further assay concerns the target T8, human IL-17A. Description: SPR Biacore, hIL-17A on chip; purified protein.
Regarding B1, the koff was 0.00022 s⁻¹.
In turn, B2 came in with a koff of 0.00063 s⁻¹.
The same measure, in the same setting: then B3, with 0.0004 s⁻¹.
As for B4, the koff was found to be 0.00012 s⁻¹.
For B5, the koff is 0.00018 s⁻¹.

The next assay has as its target T8, human IL-17A. Description: cell-based or functional assay.
As to B1, the “IL-17A-induced IL-6 production in HT-1080 cells, Emax” value amounted to 104% and the “IL-17A-induced IL-6 production in HT-1080 cells, IC50” value was 4.3 nM.
Regarding B2, the “IL-17A-induced IL-6 production in HT-1080 cells, Emax” value stood at 111% and the “IL-17A-induced IL-6 production in HT-1080 cells, IC50” value amounted to 9.7 nM.
The matching figures for B3: 99.7% and 5.1 nM.
The like results for B4 were, in that order, 99% and 4 nM.
The matching figures for B5: 113% and 5.4 nM.

The term koff denotes a measure of how fast the partners let go of each other. The low end stands for slow dissociation, the high end for fast dissociation. Broadly, the IC50 is the concentration that inhibits the measured activity by half. Read a low IC50 as greater potency.
